# Data reported in paper PMC7509637 (Advanced Science, 2020).
# Values joined by “and” are separate entries in the source; they are usually repeats but may differ in a detail not shown here. Equal entries are not always repeated. “Also recorded” adds a separate entry of the source.
# Experiments:
# [1] = biological target: T1, Aβ (Homo sapiens, UniProt P05067); assay: ThT kinetic assay of Aβ fibrillization (seeding with FapC species, Aβ seeds, bLgS); format: biochemical; conditions: 37 °C, n = 3
# T1 construct: purchased Anaspec Inc
# Experimental: FapC seeds (FapCS) were produced by FapC fibrils of three different ages. The FapC monomers were produced as described^[ ^45 ^] and stored in 6 M GdmCl. Prior to fibrillization, the FapC monomers were purified via a PD10 desalting column. FapC monomers (1 mg mL^−1 or 40 × 10^−6 M) were incubated in deionized water at 37 °C for 1 week to produce mature fibrils and at 37 °C or 25 °C for 4 d to obtain young fibrils. Deionized water was used to make FapC fibrils as it is convenient to transfer the samples to other experimental conditions, i.e., buffered Aβ solution or PBS for in vivo microinjection. However, bacterial amyloids like FapC and curli can make amyloids over a range of conditions.^[ ^93 ^] FapCS were produced by sonicating an aqueous solution of FapC fibrils (10 × 10^−6 M) at 20 power of a probe sonicator (Sonics Vibracell: 750 watts and 20 kHz) for 2 min with 1 s on/off cycle. For in vitro cross‐seeding experiments, 50 × 10^−6 M of Aβ monomers were incubated with 5 × 10^−6 M of FapCS (10:1 molar ratio, Aβ:FapCS) at 37 °C. bLg amyloids were synthesized by heating of bLg monomers (80 °C, pH 2) of 10 mg mL^−1 solution for 24 h. Prior to the production of bLgS, the bLg amyloid solution was brought to pH 7 and then sonicated, similar to FapC, to generate bLgS.
# Aβ (Anaspec Inc., purity ≥ 95%) was dissolved in 100 µL of hexafluoro‐2‐propanol (HFIP) and incubated at room temperature for 3 h. The acquired aliquots of this solution were freeze dried and stored at −20 °C for further experimentation. […] For the ThT kinetic assay, a 100 µL of aqueous solution containing Aβ (50 × 10^−6 M), FapCS or bLgS (5 × 10^−6 M) and ThT dye (100 × 10^−6 M) was incubated (37 °C) in a 96‐well plate. The ThT fluorescence (excitation: 445 nm/ emission: 485 nm) was recorded at specified time intervals for 50 h. Kinetic parameters (rate constant k, half‐life t 1/2 and lag‐time) were calculated as described.^[ ^94 ^] Briefly, kinetic curves were fitted to a sigmoidal curve =y0+ymax−y0/1+e^−(t−t1/2)k , where y 0 and y max are initial and final ThT fluorescence values, allowing us to calculate lag time = t 1/2 − 2/k.
# [2] = biological target: T1, Aβ; assay: TEM imaging of Aβ with FapC species or bLgS; conditions: 12 h incubation, uranyl acetate negative stain
# Experimental: (§1) Aβ incubated in the presence or absence of FapCS, FapC monomers, FapC fibrils or bLgS were subjected to TEM imaging. After incubation for 12 h, a drop of sample was applied on a glow‐discharged carbon‐coated copper grid. After 1 min, the sample was blotted and then negatively stained with uranyl acetate (1%) for 30 s. The dried grid was then imaged with a Technei F20 TEM at 200 kV. For AFM, a drop of sample was placed on freshly cleaved mica surface and rinsed with water after 2 min and dried with pressurized air. The sample was scanned with an AFM (Nanoscope VIII Multimode Scanning Force Microscopes, Bruker), covered with an acoustic hood to minimize the vibrational noise. Images were acquired under the tapping mode with a silicon nitride cantilever (Bruker). AFM images were processed with Nanoscope Analysis 1.5 software to flatten the background and to calculate the statistical parameters.
# [3] = biological target: T1, Aβ; assay: Circular dichroism spectroscopy, secondary structure; conditions: 37 °C, CD; for β-sheet content: Contin/reference set 4, n = 3; for random coil content: n = 3
# Experimental: Solutions of 200 µL, at similar molar ratios as for ThT assay, were prepared and incubated at 37 °C. CD spectra for different samples at 0, 12 and 48 h were measured with a CD spectrophotometer (Jasco) from 190 to 240 nm (1 nm step size). The percentage secondary structure was calculated by the CD data via Dichroweb analysis with parameters of Contin/reference set 4.^[ ^95 ^]
# [4] = biological target: T1, Aβ; assay: Static light scattering (SLS) of Aβ fibrillar growth; format: biochemical; conditions: ratio as for ThT assay, Malvern Zetasizer Nano, n = 3
# Experimental: Increases in the size of Aβ in the presence and absence of FapCS or bLgS were monitored by SLS. Solution of Aβ with FapCS or bLgS, at a similar ratio as for the ThT assay, was prepared and incubated. SLS measurements were performed at different time intervals using a Malvern Zetasizer Nano. The parameters were fixed at 7 for attenuator and 4.20 mm for cell position. Quartz cells with low volume capacity (100 µL) were used. The light scattering intensities (kilo counts per sec) and the refractive indices of the samples, buffer alone and toluene were measured.
# [5] = system: Aβ fibrils; assay: AFM of fibrils, FiberApp statistical analysis; conditions: compared with the control
# Experimental: as §1
# [6] = system: Aβ monomers; assay: Isothermal titration calorimetry (ITC); format: binding; conditions: Aβ 200 × 10^−6 M into 20 × 10^−6 M seeds, 0.1% NH4OH, 25 °C
# Experimental: ITC (Malvern MicroCal iTC200) was used to explore the interaction between Aβ monomers and oligomers (Aβo) with FapCS. Sample solutions were degassed at 25 °C while stirring (100 rpm). Aβ (200 × 10^−6 M, 40 µL) was filled into the syringe while FapCS or bLgS (20 × 10^−6 M, 200 µL) were filled in the cell (coin shaped). 0.1% NH4OH buffer solution was used for both solutions. Aβ was injected into the cell at an injection volume of 2 µL at the duration of 4 s and with a spacing of 180 s. First injection was 0.2 µL for 0.4 s duration and a total of 16 injections were programed. The heat exchange was recorded with a Microcal analysis (origin v7) software. The heat of dilution (Aβ against buffer) was subtracted from the interaction heat of samples. The acquired curves were fitted to a sequential binding model and thermodynamic parameters of binding energy (ΔH), free energy (ΔG), and entropic factor (TΔS) were calculated. Aβo for the ITC experiments was prepared by incubating Aβ aqueous solution (200 × 10^−6 M) at 4 °C for 48 h.^[ ^65 ^]
# [7] = system: adult zebrafish; assay: Cognitive memory function of adult zebrafish (arena 2 avoidance); format: in vivo, zebrafish (AB, Danio rerio); conditions: FapCS alone
# Experimental: Adult zebrafish (10 months) were employed for the study. Prior to microinjection, adult zebrafish were anesthetized by placing them in a beaker filled with ice‐chilled tricaine (0.01% in Holtfreter's buffer) for 20 s. […] The needle penetrated between left and right telencephalon for not more than 1 mm and injection volume was 1 µL. The syringe was washed with ethanol and PBS in between the injections. The injections were made under a stereomicroscope and fish were held in place with forceps. After microinjection, the fish was placed back in the water tank for recovery.
# The behavioral pathology of the adult fish was observed after 4 d and 2 weeks of microinjection. The behavioral pathology of movement frequency and traveled distance was recorded with a zebrabox (Viewpoint) in a 1 L swimming tank. For cognitive function test, the tank was hypothetically divided into two parts of arena 1 and arena 2, and arena 2 was labeled by pasting a red paper at the bottom of the tank. The behavior of the untreated fish was recorded as positive control, in both arenas. […] After training, the swimming behavior of the fish was recorded in whole tank and then analyzed for arena 1 versus arena 2 with software EthnoVision X1.
# The observations were made for 1 min with three fish per samples. […] Movement trajectories were also recorded with the instrument's camera.
Molecule,fibrillization rate constant (k) ([1]; Aβ 50 × 10^−6 M alone or with FapCS 5 × 10^−6 M),TEM observation [2],β-sheet content ([3]; 0 h),random coil content ([3]; 0 h),random coil content ([3]; 12 h),β-sheet content ([3]; 48 h),"effect on half-life t1/2 of Aβ (in words) ([1]; 5 × 10^−6 M with Aβ 50 × 10^−6 M, **, p < 0.005)","effect on rate constant k of Aβ (in words) ([1]; 5 × 10^−6 M with Aβ 50 × 10^−6 M, FapCS *, p < 0.05, FapC monomer and fibrils **, p < 0.005)","lag time of Aβ (in words) ([1]; Aβ 50 × 10^−6 M with FapCS 5 × 10^−6 M, **, p < 0.005)","effect on Aβ fibrillization (ThT) ([1]; Aβ 50 × 10^−6 M, seeds/FapC species 5 × 10^−6 M, ThT fluorescence ex 445/em 485 nm)",Aβ fibrillar growth by SLS [4],rise in fibrillar diameter of Aβ upon seeding vs control [5],binding to Aβ by ITC (in words) [6],"cognitive memory function (in words), time not stated [7]"
amyloid beta [Aβ],0.7 h⁻¹,prefibrillary oligomers,28% and 28 ± 9%,34 ± 6%,28 ± 1.5%,54% and 54 ± 4.5%,,,,,,,,
FapCS: FapC seeds obtained by sonication of mature FapC fibrils (P. aeruginosa) (protein) GNEGGWHPPKPNPQSNNKGGATALVVDTQQNYNNKVSNFGTLNNASVSGSIKDASGNVGVNVAAGDNNQQANAAALASADASFVFGTATASTSVLQSGYGNTLNNYSNPNTASLSNSANNVSGNLGVNVAAGNFNQQKNDLAAAVSNGQYSTAGSAASQTSTGNTTVNSANYAYGGTYVSLKLNADGSYKGTSDQIGDVYLDTWEGQTHPGGSNTGHIDVDSQAQGAKDLNHDGGAFAFKEKGDVDLKGTVSGFIPAIVGFKTPVTNNASLSNSLQNVSGNVGVNIAAGGGNQQSNSLSIAAGCSSCPAGGESLGF,,appeared to adsorb onto the growing Aβ fibers,,,,,significantly shortened,significantly increased,significantly shortened,acceleration of Aβ fibrillization,significantly more rapid Aβ fibrillar growth; also recorded: rapid growth in the size of Aβ fibrils,37%,weak but favorable interaction; also recorded: favorable binding with Aβ,did not induce any cognitive deficiencies
